Publication PMC2800194

Assays:
Test in all cases: fluorescence anisotropy
Details in all cases: Anisotropy: 45 mM Tris pH 8.0, 1 mM CoCl2, 1 mM 2-oxoglutarate, 1 nM DNA, 25 °C, added salt not stated
[1] = tested on: AlkB T51A (Escherichia coli)
[2] = tested on: AlkB Y76A (Escherichia coli)
[3] = tested on: AlkB R161A (Escherichia coli)
[4] = biological target: T1, AlkB D135A D135A (Escherichia coli) (UniProt P05050)
T1 sequence: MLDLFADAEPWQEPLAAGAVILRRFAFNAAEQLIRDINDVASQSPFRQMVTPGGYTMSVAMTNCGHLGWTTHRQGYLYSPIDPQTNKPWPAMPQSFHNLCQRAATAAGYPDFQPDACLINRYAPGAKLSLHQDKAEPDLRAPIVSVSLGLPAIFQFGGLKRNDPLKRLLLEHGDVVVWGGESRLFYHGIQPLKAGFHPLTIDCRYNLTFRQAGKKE

[5] = tested on: AlkB W69A (Escherichia coli)
[6] = tested on: AlkB wt (Escherichia coli)
[7] = one 1-methyladenine (position not given)
[8] = 1,N6-ethenoadenine (position not given)

Substance: 30-mer 1-meA
- Kd [1, 7]: 1.5 µM
- Kd [2, 7]: 11 µM
- Kd [3, 7]: 9.6 µM
- Kd [4, 7]: 0.316 µM
- Kd [5, 7]: 5.2 µM
- Kd [6, 7]: 2 µM

Substance: 30-mer εA
- Kd [1, 8]: 2.7 µM
- Kd [2, 8]: 22 µM
- Kd [3, 8]: 8 µM
- Kd [4, 8]: 0.127 µM
- Kd [5, 8]: 7.8 µM
- Kd [6, 8]: 1.2 µM

Substance: 30-mer undamaged
- Kd [1]: 51 µM
- Kd ([2]; 1 mM Co2+, 1 mM 2-OG): 38 µM
- Kd [3]: 20 µM
- Kd [4]: 4.9 µM
- Kd [5]: 35 µM
- Kd [6]: 16 µM
